Assay results published in paper PMC7367873, “Dissecting the sequence determinants for dephosphorylation by the catalytic subunits of phosphatases PP1 and PP2A” (Nature Communications, 2020).

B1: NOP56 (protein, UniProt O00567 1-594, looked up)
Nucleolar protein 56: MVLLHVLFEHAVGYALLALKEVEEISLLQPQVEESVLNLGKFHSIVRLVAFCPFASSQVALENANAVSEGVVHEDLRLLLETHLPSKKKKVLLGVGDPKIGAAIQEELGYNCQTGGVIAEILRGVRLHFHNLVKGLTDLSACKAQLGLGHSYSRAKVKFNVNRVDNMIIQSISLLDQLDKDINTFSMRVREWYGYHFPELVKIINDNATYCRLAQFIGNRRELNEDKLEKLEELTMDGAKAKAILDASRSSMGMDISAIDLINIESFSSRVVSLSEYRQSLHTYLRSKMSQVAPSLSALIGEAVGARLIAHAGSLTNLAKYPASTVQILGAEKALFRALKTRGNTPKYGLIFHSTFIGRAAAKNKGRISRYLANKCSIASRIDCFSEVPTSVFGEKLREQVEERLSFYETGEIPRKNLDVMKEAMVQAEEAAAEITRKLEKQEKKRLKKEKKRLAALALASSENSSSTPEECEEMSEKPKKKKKQKPQEVPQENGMEDPSISFSKPKKKKSFSKEELMSSDLEETAGSTSIPKRKKSTPKEETVNDPEEAGHRSGSKKKRKFSKEEPVSSGPEEAVGKSSSKKKKKFHKASQED
B2: YWHAH (protein, UniProt Q04917 2-246, looked up)
14-3-3 protein eta: GDREQLLQRARLAEQAERYDDMASAMKAVTELNEPLSNEDRNLLSVAYKNVVGARRSSWRVISSIEQKTMADGNEKKLEKVKAYREKIEKELETVCNDVLSLLDKFLIKNCNDFQYESKVFYLKMKGDYYRYLAEVASGEKKNSVVEASEAAYKEAFEISKEQMQPTHPIRLGLALNFSVFYYEIQNAPEQACLLAKQAFDDAIAELDTLNEDSYKDSTLIMQLLRDNLTLWTSDQQDEEAGEGN
B3: SH3BP5L (protein, UniProt Q7L8J4 1-393, looked up)
SH3 domain-binding protein …: MAELRQVPGGRETPQGELRPEVVEDEVPRSPVAEEPGGGGSSSSEAKLSPREEEELDPRIQEELEHLNQASEEINQVELQLDEARTTYRRILQESARKLNTQGSHLGSCIEKARPYYEARRLAKEAQQETQKAALRYERAVSMHNAAREMVFVAEQGVMADKNRLDPTWQEMLNHATCKVNEAEEERLRGEREHQRVTRLCQQAEARVQALQKTLRRAIGKSRPYFELKAQFSQILEEHKAKVTELEQQVAQAKTRYSVALRNLEQISEQIHARRRGGLPPHPLGPRRSSPVGAEAGPEDMEDGDSGIEGAEGAGLEEGSSLGPGPAPDTDTLSLLSLRTVASDLQKCDSVEHLRGLSDHVSLDGQELGTRSGGRRGSDGGARGGRHQRSVSL
B4: FLII (protein, UniProt Q13045 1-1269, looked up)
Protein flightless-1 homolog: MEATGVLPFVRGVDLSGNDFKGGYFPENVKAMTSLRWLKLNRTGLCYLPEELAALQKLEHLSVSHNNLTTLHGELSSLPSLRAIVARANSLKNSGVPDDIFKLDDLSVLDLSHNQLTECPRELENAKNMLVLNLSHNSIDTIPNQLFINLTDLLYLDLSENRLESLPPQMRRLVHLQTLVLNGNPLLHAQLRQLPAMTALQTLHLRSTQRTQSNLPTSLEGLSNLADVDLSCNDLTRVPECLYTLPSLRRLNLSSNQITELSLCIDQWVHVETLNLSRNQLTSLPSAICKLSKLKKLYLNSNKLDFDGLPSGIGKLTNLEEFMAANNNLELVPESLCRCPKLRKLVLNKNHLVTLPEAIHFLTEIEVLDVRENPNLVMPPKPADRAAEWYNIDFSLQNQLRLAGASPATVAAAAAAGSGPKDPMARKMRLRRRKDSAQDDQAKQVLKGMSDVAQEKNKKQEESADARAPSGKVRRWDQGLEKPRLDYSEFFTEDVGQLPGLTIWQIENFVPVLVEEAFHGKFYEADCYIVLKTFLDDSGSLNWEIYYWIGGEATLDKKACSAIHAVNLRNYLGAECRTVREEMGDESEEFLQVFDNDISYIEGGTASGFYTVEDTHYVTRMYRVYGKKNIKLEPVPLKGTSLDPRFVFLLDRGLDIYVWRGAQATLSSTTKARLFAEKINKNERKGKAEITLLVQGQELPEFWEALGGEPSEIKKHVPEDFWPPQPKLYKVGLGLGYLELPQINYKLSVEHKQRPKVELMPRMRLLQSLLDTRCVYILDCWSDVFIWLGRKSPRLVRAAALKLGQELCGMLHRPRHATVSRSLEGTEAQVFKAKFKNWDDVLTVDYTRNAEAVLQSPGLSGKVKRDAEKKDQMKADLTALFLPRQPPMSLAEAEQLMEEWNEDLDGMEGFVLEGKKFARLPEEEFGHFYTQDCYVFLCRYWVPVEYEEEEKKEDKEEKAEGKEGEEATAEAEEKQPEEDFQCIVYFWQGREASNMGWLTFTFSLQKKFESLFPGKLEVVRMTQQQENPKFLSHFKRKFIIHRGKRKAVQGAQQPSLYQIRTNGSALCTRCIQINTDSSLLNSEFCFILKVPFESEDNQGIVYAWVGRASDPDEAKLAEDILNTMFDTSYSKQVINEGEEPENFFWVGIGAQKPYDDDAEYMKHTRLFRCSNEKGYFAVTEKCSDFCQDDLADDDIMLLDNGQEVYMWVGTQTSQVEIKLSLKACQVYIQHMRSKEHERPRRLRLVRKGNEQHAFTRCFHAWSAFCKALA
B5: HNRNPA3 (protein, UniProt P51991 1-378, looked up)
Heterogeneous nuclear …: MEVKPPPGRPQPDSGRRRRRRGEEGHDPKEPEQLRKLFIGGLSFETTDDSLREHFEKWGTLTDCVVMRDPQTKRSRGFGFVTYSCVEEVDAAMCARPHKVDGRVVEPKRAVSREDSVKPGAHLTVKKIFVGGIKEDTEEYNLRDYFEKYGKIETIEVMEDRQSGKKRGFAFVTFDDHDTVDKIVVQKYHTINGHNCEVKKALSKQEMQSAGSQRGRGGGSGNFMGRGGNFGGGGGNFGRGGNFGGRGGYGGGGGGSRGSYGGGDGGYNGFGGDGGNYGGGPGYSSRGGYGGGGPGYGNQGGGYGGGGGYDGYNEGGNFGGGNYGGGGNYNDFGNYSGQQQSNYGPMKGGSFGGRSSGSPYGGGYGSGGGSGGYGSRRF
B6: DBN1 (protein, UniProt Q16643 2-649, looked up)
Drebrin: AGVSFSGHRLELLAAYEEVIREESAADWALYTYEDGSDDLKLAASGEGGLQELSGHFENQKVMYGFCSVKDSQAALPKYVLINWVGEDVPDARKCACASHVAKVAEFFQGVDVIVNASSVEDIDAGAIGQRLSNGLARLSSPVLHRLRLREDENAEPVGTTYQKTDAAVEMKRINREQFWEQAKKEEELRKEEERKKALDERLRFEQERMEQERQEQEERERRYREREQQIEEHRRKQQTLEAEEAKRRLKEQSIFGDHRDEEEETHMKKSESEVEEAAAIIAQRPDNPREFFKQQERVASASAGSCDVPSPFNHRPGSHLDSHRRMAPTPIPTRSPSDSSTASTPVAEQIERALDEVTSSQPPPLPPPPPPAQETQEPSPILDSEETRAAAPQAWAGPMEEPPQAQAPPRGPGSPAEDLMFMESAEQAVLAAPVEPATADATEIHDAADTIETDTATADTTVANNVPPAATSLIDLWPGNGEGASTLQGEPRAPTPPSGTEVTLAEVPLLDEVAPEPLLPAGEGCATLLNFDELPEPPATFCDPEEVEGESLAAPQTPTLPSALEELEQEQEPEPHLLTNGETTQKEGTQASEGYFSQSQEEEFAQSEELCAKAPPPVFYNKPPEIDITCWDADPVPEEEEGFEGGD
B7: HSD17B4 (protein, UniProt P51659 1-736, looked up)
Peroxisomal multifunctional …: MGSPLRFDGRVVLVTGAGAGLGRAYALAFAERGALVVVNDLGGDFKGVGKGSLAADKVVEEIRRRGGKAVANYDSVEEGEKVVKTALDAFGRIDVVVNNAGILRDRSFARISDEDWDIIHRVHLRGSFQVTRAAWEHMKKQKYGRIIMTSSASGIYGNFGQANYSAAKLGLLGLANSLAIEGRKSNIHCNTIAPNAGSRMTQTVMPEDLVEALKPEYVAPLVLWLCHESCEENGGLFEVGAGWIGKLRWERTLGAIVRQKNHPMTPEAVKANWKKICDFENASKPQSIQESTGSIIEVLSKIDSEGGVSANHTSRATSTATSGFAGAIGQKLPPFSYAYTELEAIMYALGVGASIKDPKDLKFIYEGSSDFSCLPTFGVIIGQKSMMGGGLAEIPGLSINFAKVLHGEQYLELYKPLPRAGKLKCEAVVADVLDKGSGVVIIMDVYSYSEKELICHNQFSLFLVGSGGFGGKRTSDKVKVAVAIPNRPPDAVLTDTTSLNQAALYRLSGDWNPLHIDPNFASLAGFDKPILHGLCTFGFSARRVLQQFADNDVSRFKAIKARFAKPVYPGQTLQTEMWKEGNRIHFQTKVQETGDIVISNAYVDLAPTSGTSAKTPSEGGKLQSTFVFEEIGRRLKDIGPEVVKKVNAVFEWHITKGGNIGAKWTIDLKSGSGKVYQGPAKGAADTTIILSDEDFMEVVLGKLDPQKAFFSGRLKARGNIMLSQKLQMILKDYAKL
B8: TMEM33 (protein, UniProt P57088 2-247, looked up)
Transmembrane protein 33: ADTTPNGPQGAGAVQFMMTNKLDTAMWLSRLFTVYCSALFVLPLLGLHEAASFYQRALLANALTSALRLHQRLPHFQLSRAFLAQALLEDSCHYLLYSLIFVNSYPVTMSIFPVLLFSLLHAATYTKKVLDARGSNSLPLLRSVLDKLSANQQNILKFIACNEIFLMPATVFMLFSGQGSLLQPFIYYRFLTLRYSSRRNPYCRTLFNELRIVVEHIIMKPACPLFVRRLCLQSIAFISRLAPTVP

System: GFP-14-3-3β and its binding proteins
Assay: GFP-14-3-3β co-IP with LC-MS/MS label-free quantification, untreated versus PP1c-treated
Design: species or system human
Conditions: PP1 vs untreated; LFQ intensities, replicates 1-3

| Molecule | Difference (log2), PP1 vs untreated [log2] |
| --- | --- |
| B1 | -0.8589 |
| B2 | -0.8796 |
| B3 | -0.8873 |
| B4 | -0.8907 |
| B5 | -0.8983 |
| B6 | -0.9011 |
| B7 | -0.9107 |

Same assay, conditions: log2 difference; pairwise comparison PP1 vs untreated, label-free quantification, 3 replicates each

| Molecule | Difference (log2), PP1 vs untreated |
| --- | --- |
| B8 | 1.645 |

System: GFP-14-3-3β
Assay: GFP-14-3-3β co-IP with LC-MS/MS, untreated GFP-14-3-3β versus GFP control (14-3-3 interactome)
Assay type: binding, human
Conditions: log2 difference; pairwise comparison untreated vs GFP, label-free quantification, 3 replicates each

| Molecule | Difference (log2), untreated vs GFP |
| --- | --- |
| B8 | 0.3842 |

Same assay, conditions: untreated vs GFP; LFQ intensities, replicates 1-3

| Molecule | Difference (log2), untreated vs GFP [log2] |
| --- | --- |
| B1 | 2.987 |
| B2 | 7.762 |
| B3 | 3.944 |
| B4 | 1.165 |
| B5 | 1.1202 |
| B6 | -0.06481 |
| B7 | -0.9814 |
